Test results taken from the supplement of paper PMC12042874.
± gives the uncertainty stated by the source.

Experiment: amyloid nucleation score (Sup35N fusion, yeast selection) (log enrichment); library NNK2; higher = more nucleation; inactive = no reads after selection
Summary of the method: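 The nucleation score is the log enrichment of output over input reads, calculated with DiMSum and centred on the mode score of non-aggregating sequences. Sequences with under 100 input reads were excluded. Reads came from Illumina sequencing of plasmid inserts from psi-negative yeast expressing Sup35N fused to peptides of 20 random codons, induced 24 hours with 100 μM copper sulfate and grown 7 days at 30°C without adenine and uracil.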

Work on ASPSHACGLC yielded an amyloid nucleation score of 2.12 ± 0.15.

DEMARVYIHY showed an amyloid nucleation score of 0.183 ± 0.74.

For RLAFSKE, the amyloid nucleation score was -0.065 ± 0.46.

Substance LGFWL has an amyloid nucleation score of -1.31 ± 0.41.

For LRFSWDKISFVVRWLVVGLT, the amyloid nucleation score was 0.138 ± 0.19.

TAKHDYFLSEESRRLYSSKY gave an amyloid nucleation score of 2.31 ± 0.063.

RFRKSLGALALRRIVGSEAM gave an amyloid nucleation score of 1.53 ± 0.39.

Work on TVFLIDTYTYDTVFNTSRCR yielded an amyloid nucleation score of 3.76 ± 0.041.

For YNNAGGQVDLNLCYGLDVFL, the amyloid nucleation score was “inactive”.

Substance YQIFNKLVAHFKYNYTQTDR has an amyloid nucleation score of -0.902 ± 0.56.

Work on AKLRHWDCHFTR yielded an amyloid nucleation score of 0.405 ± 0.2.

Substance VISSMFNLIKYGSVWSLRGL has an amyloid nucleation score of -0.706 ± 1.

With NNSHPRNKLSWIVRLCVKLI the amyloid nucleation score was “inactive”.

For KTRLPGVL, the amyloid nucleation score was “inactive”.

For VVANINEVLINPRCSAGFHD, the amyloid nucleation score was 0.683 ± 0.74.

Substance NNVPCEKHRHASMYINAA has an amyloid nucleation score of -0.081 ± 1.1.

For NGADWATRRIWVSVRAVMGR, the amyloid nucleation score was 0.513 ± 0.32.

KIRASVNSSRFFWFDAS gave an amyloid nucleation score of 2.96 ± 0.13.

With DLGDKFL the amyloid nucleation score was 1.67 ± 0.23.

Work on GYGVAWLYGISDSVRLRAPY yielded an amyloid nucleation score of 0.335 ± 0.42.

Substance LVIALSFCY has an amyloid nucleation score of 3.57 ± 0.069.

Work on EVTSTY yielded an amyloid nucleation score of 0.501 ± 0.46.

In the case of LTDNS, the amyloid nucleation score is reported as 0.147 ± 0.61.

With VDWFLYFCSPTFCHVL the amyloid nucleation score was 8.741 ± 0.063.

In the case of AFEPDIK, the amyloid nucleation score is reported as -0.738 ± 0.62.

PHLASPYHHPCNPQFLFPYL gave an amyloid nucleation score of 0.016 ± 1.1.

With QWTHERSEPWHCSDVRSFIE the amyloid nucleation score was 5.757 ± 0.044.

For FNNVILSRV, the amyloid nucleation score was -1.5 ± 0.61.

With IKERGLCRWMYARFKGKSAI the amyloid nucleation score was “inactive”.

Substance CVTRMDYTDVSDMHLM has an amyloid nucleation score of 0.307 ± 0.56.

Substance RSAFHCNWLISISSGKVSHM has an amyloid nucleation score of -0.452 ± 0.55.

For ILRYSFCRMLFAPRVTLIRF, the amyloid nucleation score was 1.74 ± 0.25.

MLWVYWLGCHVRSYNLGYLR showed an amyloid nucleation score of -0.255 ± 0.63.

AVVIWAKML showed an amyloid nucleation score of 0.372 ± 0.27.

With ELDGYLVLFFTGLNP the amyloid nucleation score was -0.418 ± 0.63.

With RLYHPSQWGDLILCIFVMEA the amyloid nucleation score was -0.343 ± 0.62.

Work on TLYQCEEDMSGYDNVNDLAY yielded an amyloid nucleation score of -0.331 ± 0.27.

SLDCPGFGRAYV gave an amyloid nucleation score of 1.62 ± 0.16.

Work on VGELVMLFSKYSSVNVRGFA yielded an amyloid nucleation score of 3.04 ± 0.075.

Work on VTFSSIVTISLISYLQRFWR yielded an amyloid nucleation score of 5.77 ± 0.04.

Work on KTIQVGQVA yielded an amyloid nucleation score of 1.24 ± 0.29.

Work on CCFVLTVR yielded an amyloid nucleation score of 5.174 ± 0.035.

TIGHCTEWAINMSYVFNRGY gave an amyloid nucleation score of 3.74 ± 0.053.

Work on PCIRPLDKVCLIFFTGIFLW yielded an amyloid nucleation score of -1.47 ± 0.78.

FFPPFVNLGVGTYQV showed an amyloid nucleation score of -1.37 ± 0.54.

Substance KLLPEWSWKG has an amyloid nucleation score of 0.428 ± 0.39.

Substance MIAVV has an amyloid nucleation score of 0.861 ± 0.2.

KTLTVFAISYC gave an amyloid nucleation score of 0.482 ± 0.55.

AWETFELVLY showed an amyloid nucleation score of -0.145 ± 0.76.

SRRFFQKIRLWGMTDQQKGM showed an amyloid nucleation score of 3.08 ± 0.072.

With KRGSAEFNQLDHYECTRYEC the amyloid nucleation score was “inactive”.

With HNVEGRDRVVLMFSIKCCML the amyloid nucleation score was 5.92 ± 0.061.

Substance KNNSFWGISLTGLLGYIYTR has an amyloid nucleation score of -0.627 ± 1.

STFLCVLTGMCCMARMS gave an amyloid nucleation score of 0.54 ± 0.64.

For FIKVFCSLRVDNQVRYRKRL, the amyloid nucleation score was 2.75 ± 0.1.

Work on PGLTVYFGTVRMKVHCWSYR yielded an amyloid nucleation score of 9.779 ± 0.029.

For KYMLLCSICIFRNQGKKFRL, the amyloid nucleation score was 8.384 ± 0.052.

With HSFLPRGHVADYNKLPVWSV the amyloid nucleation score was -0.707 ± 0.61.

VSTGAWCYGLWSVLQGWERG gave an amyloid nucleation score of 5.02 ± 0.082.

In the case of RATKGAPN, the amyloid nucleation score is reported as 0.858 ± 0.28.

TYSTSSLYRMEIHLAFSASV gave an amyloid nucleation score of -0.22 ± 1.

EGRVFTGEGRYECCSCFGLL showed an amyloid nucleation score of -0.752 ± 0.64.

For RPNAVVFLTDNNVRRSDCWV, the amyloid nucleation score was -0.639 ± 0.28.

In the case of REDRNATLCIVV, the amyloid nucleation score is reported as 2.67 ± 0.13.

Work on MDNTWNLCDSFYSCSGDLNT yielded an amyloid nucleation score of -0.595 ± 0.35.

Substance YFYNGSRA has an amyloid nucleation score of -1.61 ± 1.1.

With FVPAVEFVHHFAVWVWRE the amyloid nucleation score was 0.072 ± 1.1.

In the case of ALGYSRLTEYGLDRMVQTAC, the amyloid nucleation score is reported as 0.908 ± 0.52.

Substance AVIDIIKRTSCTCDESCCIL has an amyloid nucleation score of 0.503 ± 0.31.

In the case of TLDYGIFTVVNSTLWLYRSV, the amyloid nucleation score is reported as “inactive”.

Work on SLLYRD yielded an amyloid nucleation score of -0.817 ± 0.48.

PARTYILYNPDAGMSLKWSS showed an amyloid nucleation score of -1.06 ± 1.1.

With CSHPFDYVQTILRTVTLFLI the amyloid nucleation score was -0.114 ± 0.63.

In the case of LLPMGYAYISYSLLGNYMSG, the amyloid nucleation score is reported as -1.37 ± 0.48.

In the case of NNFWFKLQIM, the amyloid nucleation score is reported as 6.18 ± 0.064.

For EALSKLFFYSWERSFHNGEG, the amyloid nucleation score was 2.11 ± 0.11.

In the case of YHCGFGAS, the amyloid nucleation score is reported as 0.837 ± 0.44.

Substance GMVAICFYHM has an amyloid nucleation score of 6.05 ± 0.046.

For LLFCKPDAHFVLCSFYPLML, the amyloid nucleation score was “inactive”.

LVNMGSGPALYLYPLSIMVK gave an amyloid nucleation score of -1.42 ± 1.1.

In the case of CLLLLCNPRISAE, the amyloid nucleation score is reported as -0.582 ± 0.76.

Work on LRHDR yielded an amyloid nucleation score of 0.43 ± 0.32.

Substance GRRFLYKPAKTWYVVWHRGL has an amyloid nucleation score of 0.229 ± 0.49.

With ILSCRYHNYSQQLVK the amyloid nucleation score was “inactive”.

For QLQFMRADFFLNKVKLRGET, the amyloid nucleation score was “inactive”.

For IGMSHRSQACESFKVKCPTY, the amyloid nucleation score was 1.66 ± 0.2.

GKLLLFSSWGRA showed an amyloid nucleation score of 0.083 ± 0.44.

For CQCSVSVGNTDSHNLPKVYV, the amyloid nucleation score was -0.221 ± 1.1.

Substance EITEDSMVLVRWSGARNFHM has an amyloid nucleation score of 2.56 ± 0.15.

For WRYIAVNFSNAFNDLVDSCA, the amyloid nucleation score was 0.117 ± 0.79.

With IRWCF the amyloid nucleation score was 5.34 ± 0.09.

Work on YGVGMVWMVIECEEVGYVRR yielded an amyloid nucleation score of 0.683 ± 0.16.

Substance MHSLCRM has an amyloid nucleation score of -1.24 ± 0.53.

In the case of DFMRDFWKDSDNQEVFLLPI, the amyloid nucleation score is reported as -0.885 ± 0.44.

In the case of RYKKAHSSALRCK, the amyloid nucleation score is reported as 0.988 ± 0.74.

Work on TDANESDR yielded an amyloid nucleation score of 0.905 ± 0.36.

GGTIYTLL gave an amyloid nucleation score of -1.01 ± 0.36.

Work on ISVRPAQSASRPCLDLWLKA yielded an amyloid nucleation score of 1.55 ± 0.36.

Work on FSRTTAHMTLDMYFTGRDGY yielded an amyloid nucleation score of 5.79 ± 0.058.

With GTLWLGDAGRAEN the amyloid nucleation score was 0.589 ± 0.39.

For MYEAAGSDREVLRKYEHSSV, the amyloid nucleation score was -0.22 ± 0.4.

Substance YRKAGSSQTGNFLLLLLDGG has an amyloid nucleation score of 0.067 ± 0.63.

RCERWCPWNFHNQAL showed an amyloid nucleation score of 0.449 ± 0.51.

TIALPNFVWPKSSRKVYFS showed an amyloid nucleation score of -0.748 ± 0.32.

Work on ARQDYWIRWLTALSMMYGSG yielded an amyloid nucleation score of -0.071 ± 0.31.

For WSITGG, the amyloid nucleation score was 0.477 ± 0.66.

Substance RSGAVQWRQRMGCMPSVCDR has an amyloid nucleation score of 1.46 ± 0.26.

Substance SRLGFMAKPLMDVS has an amyloid nucleation score of 2.79 ± 0.09.

For YVSWRTNGLMSTCDFLTRQT, the amyloid nucleation score was 0.719 ± 0.23.

VKHVIAHTRG showed an amyloid nucleation score of 1.52 ± 0.38.

With RVGSFG the amyloid nucleation score was 0.596 ± 0.4.

In the case of GLSNLTYDFFPEKPP, the amyloid nucleation score is reported as -1.45 ± 0.62.

With SKPCGKVIYWKDRLSKLSEK the amyloid nucleation score was “inactive”.

With TVGNF the amyloid nucleation score was 1.25 ± 0.47.

For RCSDVTDFNKM, the amyloid nucleation score was 0.122 ± 1.1.

NYHKWNVDSDFVYKGYGGHC gave an amyloid nucleation score of -0.573 ± 0.48.

With SKDLSISQWSLGWLCHVWHT the amyloid nucleation score was -0.153 ± 0.79.

YIFSILRDKSVPFDSQVSKN gave an amyloid nucleation score of -0.797 ± 1.1.

KFCSRVFSQCMSYLSCLLDF showed an amyloid nucleation score of 0.17 ± 0.74.

SFLWCPGG gave an amyloid nucleation score of 0.221 ± 0.33.

With LCLELFKQSVQFGLC the amyloid nucleation score was 0.325 ± 0.35.

In the case of SQSHNIYQ, the amyloid nucleation score is reported as 3.46 ± 0.14.

With FYRGM the amyloid nucleation score was -0.547 ± 0.5.

With FLVFYLVCGSGLYMNNGQFF the amyloid nucleation score was -0.908 ± 0.41.

For MNKCFFTSRSEG, the amyloid nucleation score was “inactive”.

Substance SGYWNGVIRTKSNNDTVYVK has an amyloid nucleation score of -0.395 ± 0.22.

Work on WYNCSALWESLMFNGLQAVW yielded an amyloid nucleation score of -0.268 ± 0.48.

For VSMLISTTPAYIIRQFKGLW, the amyloid nucleation score was 1.09 ± 0.68.

For GLTGRPQRLIVWAYDLERLW, the amyloid nucleation score was -0.09 ± 0.63.

Substance TYVLAIGLFWRYPF has an amyloid nucleation score of 3.22 ± 0.083.
